Data on 67 sequences can be found in the supplement of paper PMC10724198.

The subject of the data set is Saccharomyces cerevisiae. Kind of data set: protein stability index of tFT-peptide fusion (C-terminal peptide) (PSI (0-1 scale)); higher = more stable (slower turnover). To be noted: temperature: 30 C. As for the experimental part: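 MPS profiling in S. cerevisiae of the yeast C-terminome library: the last 12 aa of each annotated ORF are fused to the C-terminus of a sfGFP-mCherry timer, after a GGGS linker. Cells are FACS-sorted into 8 mCherry/sfGFP bins and deep-sequenced. PSI runs from 0 (unstable) to 1 (stable); wild type and das1Δ backgrounds, two technical replicates each.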

[1] abbreviates: genetic background: das1 deletion.

± gives the standard deviation of the averaged measurements.

Regarding KQIAKQSSKMMK [VMR1 C-terminal 12 aa], the protein stability index was 0.686 ± 0.0041 under setting [1] and 0.708 ± 0.03 (genetic background: wild type).

On to KQKKQQAQPLRK [VRG4 C-terminal 12 aa], for which the protein stability index is, setting by setting: under setting [1], 0.704 ± 0.012; (genetic background: wild type) 0.673 ± 0.026.

With KQLQEGNRRHKL [DCI1 C-terminal 12 aa], the protein stability index was 0.768 ± 0.0084 under setting [1] and 0.808 ± 0.15 (genetic background: wild type).

On to KSEEAKKRTSLY [YBR124W C-terminal 12 aa], for which the protein stability index stood at 0.694 ± 0.013 under setting [1] and 0.679 ± 0.023 (genetic background: wild type).

As to KSLFSIIDDLQS [MSH6 C-terminal 12 aa], the protein stability index came to 0.731 ± 0.0073 under setting [1] and 0.727 ± 0.021 (genetic background: wild type).

As to KTFWDKFWNVVA [CAN1 C-terminal 12 aa], the protein stability index was found to be 0.735 ± 0.03 under setting [1] and 0.193 ± 0.014 (genetic background: wild type).

With KTGKSSVIDLQR [GCN2 C-terminal 12 aa], the protein stability index is, setting by setting: under setting [1], 0.712 ± 0.031; (genetic background: wild type) 0.726 ± 0.11.

Take KTRWQRVWDVLS [ALP1 C-terminal 12 aa]: the protein stability index runs as follows: under setting [1], 0.7259 ± 0.0053; (genetic background: wild type) 0.207 ± 0.01.

Take KTSSKGNARTLL [FMP49 C-terminal 12 aa]: the protein stability index is, setting by setting: under setting [1], 0.698 ± 0.025; (genetic background: wild type) 0.709 ± 0.0091.

Take KVETVLNKMFEK [REC114 C-terminal 12 aa]: the protein stability index was 0.701 ± 0.015 under setting [1] and 0.687 ± 0.022 (genetic background: wild type).

Consider KVIRGKGFKLPK [ERD2 C-terminal 12 aa], for which the protein stability index by setting is: under setting [1], 0.675 ± 0.0093; (genetic background: wild type) 0.667 ± 0.036.

Consider KVLACYEEIDDY [UBC11 C-terminal 12 aa], for which the protein stability index was found to be 0.679 ± 0.0098 under setting [1] and 0.712 ± 0.059 (genetic background: wild type).

KYEPTQEIIEDI [ITR1 C-terminal 12 aa]: the protein stability index is 0.693 ± 0.036 under setting [1] and 0.702 ± 0.048 (genetic background: wild type).

Turning to KYNNYFKIPPKY [BI3 C-terminal 12 aa], the protein stability index by setting is: under setting [1], 0.688 ± 0.022; (genetic background: wild type) 0.659 ± 0.018.

Take LAKLINKSCVFK [YKL069W C-terminal 12 aa]: the protein stability index is 0.7 ± 0.023 under setting [1] and 0.642 ± 0.029 (genetic background: wild type).

Consider LARGGVASFTVK [RNH70 C-terminal 12 aa], for which the protein stability index by setting is: under setting [1], 0.703 ± 0.0078; (genetic background: wild type) 0.652 ± 0.0088.

Regarding LARLKTCVLLIN [YML122C C-terminal 12 aa], the protein stability index under setting [1] was 0.544 ± 0.017 and the protein stability index (genetic background: wild type) is 0.154 ± 0.0076.

For LCGAPNCKGFLN [SET1 C-terminal 12 aa], the protein stability index is, setting by setting: under setting [1], 0.677 ± 0.026; (genetic background: wild type) 0.671 ± 0.036.

Turning to LEKSTNPIKKNN [VOA1 C-terminal 12 aa], the protein stability index reads like this: under setting [1], 0.703 ± 0.023; (genetic background: wild type) 0.765 ± 0.038.

Consider LEKVLNQIGLKN [YNL011C C-terminal 12 aa], for which the protein stability index reads like this: under setting [1], 0.6874 ± 0.0064; (genetic background: wild type) 0.6425 ± 0.0062.

Take LEPQESKPTIDH [AIM34 C-terminal 12 aa]: the protein stability index runs as follows: under setting [1], 0.697 ± 0.018; (genetic background: wild type) 0.6899 ± 0.005.

As for LFCYCSCDSYES [YBL100C C-terminal 12 aa], the protein stability index runs as follows: under setting [1], 0.646 ± 0.017; (genetic background: wild type) 0.668 ± 0.031.

LFDARFERKNPH [SRB8 C-terminal 12 aa]: the protein stability index is 0.737 ± 0.025 under setting [1] and 0.7112 ± 0.0032 (genetic background: wild type).

Consider “LGFIQNSTIVCQ [YMR306C-A C-terminal 12 aa]”, for which the protein stability index was found to be 0.467 ± 0.028 under setting [1] and 0.494 ± 0.019 (genetic background: wild type).

As for LGKKKPPSRLFR [CDC25 C-terminal 12 aa], the protein stability index came out at 0.707 ± 0.019 under setting [1] and 0.715 ± 0.035 (genetic background: wild type).

In turn, LGLSLRRGTEIW [MRP8 C-terminal 12 aa] showed a protein stability index under setting [1] of 0.72702 ± 0.00035 and a protein stability index (genetic background: wild type) of 0.72218 ± 0.00069.

Turning to “LGSNCVFLAIFR [YPL222C-A C-terminal 12 aa]”, the protein stability index by setting is: under setting [1], 0.674 ± 0.032; (genetic background: wild type) 0.648 ± 0.02.

As to LHTEREKKKKKF [YKR040C C-terminal 12 aa], the protein stability index by setting is: under setting [1], 0.725 ± 0.043; (genetic background: wild type) 0.682 ± 0.1.

LHVVSSAYFEIQ [YEL075C C-terminal 12 aa]: the protein stability index by setting is: under setting [1], 0.674 ± 0.041; (genetic background: wild type) 0.626 ± 0.044.

For the sequence LICQTESNPKIV [VPS8 C-terminal 12 aa], the protein stability index runs as follows: under setting [1], 0.708 ± 0.0091; (genetic background: wild type) 0.694 ± 0.036.

With LIVSFFYKRNAL [IQG1 C-terminal 12 aa], the protein stability index by setting is: under setting [1], 0.667 ± 0.018; (genetic background: wild type) 0.584 ± 0.015.

For LIVSYCASVAFG [ATG12 C-terminal 12 aa], the protein stability index under setting [1] came out at 0.366 ± 0.013 and the protein stability index (genetic background: wild type) is 0.382 ± 0.0029.

In the case of LKDQIVETRTPI [ERG27 C-terminal 12 aa], the protein stability index reads like this: under setting [1], 0.707 ± 0.042; (genetic background: wild type) 0.664 ± 0.02.

LKLKRDLLRLKR [CIP1 C-terminal 12 aa]: the protein stability index worked out at 0.682 ± 0.019 under setting [1] and 0.651 ± 0.021 (genetic background: wild type).

For the sequence LKQTVESLIKEL [VPS51 C-terminal 12 aa], the protein stability index came to 0.66 ± 0.0088 under setting [1] and 0.711 ± 0.072 (genetic background: wild type).

Regarding LKSATESFVATF [ATP1 C-terminal 12 aa], the protein stability index is, setting by setting: under setting [1], 0.701 ± 0.0097; (genetic background: wild type) 0.694 ± 0.014.

Consider LKSVKHSIRVYT [YPR012W C-terminal 12 aa], for which the protein stability index runs as follows: under setting [1], 0.627 ± 0.015; (genetic background: wild type) 0.604 ± 0.028.

In the case of LLFGDEVVACKD [YDL172C C-terminal 12 aa], the protein stability index is 0.722 ± 0.017 under setting [1] and 0.691 ± 0.011 (genetic background: wild type).

As for LLGAITALFGLI [PLB2 C-terminal 12 aa], the protein stability index is 0.686 ± 0.034 under setting [1] and 0.658 ± 0.029 (genetic background: wild type).

For the sequence LLKKLKVVFGIE [FUN12 C-terminal 12 aa], the protein stability index is, setting by setting: under setting [1], 0.703 ± 0.014; (genetic background: wild type) 0.68523 ± 0.0002.

Regarding LLLTILLFYPPY [YBL109W C-terminal 12 aa], the protein stability index runs as follows: under setting [1], 0.296 ± 0.011; (genetic background: wild type) 0.318 ± 0.022.

As for LLTAMSAQISFD [AAD16 C-terminal 12 aa], the protein stability index runs as follows: under setting [1], 0.735 ± 0.00072; (genetic background: wild type) 0.72 ± 0.012.

In the case of LLYHMDLLLKVK [VID28 C-terminal 12 aa], the protein stability index runs as follows: under setting [1], 0.299 ± 0.026; (genetic background: wild type) 0.365 ± 0.015.

As to “LMQLLLGSLGLS [YKL145W-A C-terminal 12 aa]”, the protein stability index runs as follows: under setting [1], 0.706 ± 0.0093; (genetic background: wild type) 0.716 ± 0.031.

For LNDMVLELKENY [NNF1 C-terminal 12 aa], the protein stability index was 0.698 ± 0.015 under setting [1] and 0.704 ± 0.0096 (genetic background: wild type).

Take LNEPKDSAENKI [SRC1 C-terminal 12 aa]: the protein stability index is, setting by setting: under setting [1], 0.6958 ± 0.0062; (genetic background: wild type) 0.659 ± 0.026.

On to LNWVFSFYSCSE [YIL163C C-terminal 12 aa], for which the protein stability index was 0.6796 ± 0.0049 under setting [1] and 0.688 ± 0.019 (genetic background: wild type).

For the sequence LQYKKVGKWRED [URB2 C-terminal 12 aa], the protein stability index runs as follows: under setting [1], 0.724 ± 0.017; (genetic background: wild type) 0.736 ± 0.0096.

Regarding LRKAAANNCIQF [SUA5 C-terminal 12 aa], the protein stability index runs as follows: under setting [1], 0.7215 ± 0.0026; (genetic background: wild type) 0.7134 ± 0.0016.

For the sequence LRKRLSCYMLIL [YDR114C C-terminal 12 aa], the protein stability index came out at 0.576 ± 0.013 under setting [1] and 0.4114 ± 0.0012 (genetic background: wild type).

In the case of LRNQSPFTSSNE [YKL107W C-terminal 12 aa], the protein stability index came to 0.695 ± 0.02 under setting [1] and 0.682 ± 0.029 (genetic background: wild type).

On to LRRGEPDNKVNR [SPG4 C-terminal 12 aa], for which the protein stability index under setting [1] came out at 0.71 ± 0.019 and the protein stability index (genetic background: wild type) was 0.708 ± 0.012.

For the sequence LRVYENFQKFIK [YMR262W C-terminal 12 aa], the protein stability index is, setting by setting: under setting [1], 0.72 ± 0.054; (genetic background: wild type) 0.705 ± 0.04.

LSDASYDTYELV [SPG5 C-terminal 12 aa]: the protein stability index under setting [1] worked out at 0.703 ± 0.011 and the protein stability index (genetic background: wild type) was 0.743 ± 0.01.

With LSEKIYDAFGKL [MUS81 C-terminal 12 aa], the protein stability index under setting [1] is 0.723 ± 0.015 and the protein stability index (genetic background: wild type) is 0.7271 ± 0.0047.

Consider LSIFGFDMFNRK [YMR1 C-terminal 12 aa], for which the protein stability index by setting is: under setting [1], 0.706 ± 0.046; (genetic background: wild type) 0.703 ± 0.028.

Regarding LSNMLNQFILNL [YLR202C C-terminal 12 aa], the protein stability index by setting is: under setting [1], 0.754 ± 0.058; (genetic background: wild type) 0.74991 ± 6.5e-05.

Regarding LSQIVDIWNKDI [MNT2 C-terminal 12 aa], the protein stability index is 0.741 ± 0.03 under setting [1] and 0.79 ± 0.044 (genetic background: wild type).

Consider LSTFFLFHNPCN [YGL239C C-terminal 12 aa], for which the protein stability index under setting [1] is 0.762 ± 0.022 and the protein stability index (genetic background: wild type) turned out to be 0.706 ± 0.079.

As for LSTLGVGAAIIS [AVT1 C-terminal 12 aa], the protein stability index by setting is: under setting [1], 0.695 ± 0.024; (genetic background: wild type) 0.675 ± 0.035.

LSVHPLKPCDPN [INP52 C-terminal 12 aa] displayed a protein stability index under setting [1] of 0.684 ± 0.0054 and a protein stability index (genetic background: wild type) of 0.661 ± 0.042.

Turning to LTARKVNALRHR [KNH1 C-terminal 12 aa], the protein stability index runs as follows: under setting [1], 0.694 ± 0.028; (genetic background: wild type) 0.694 ± 0.048.

On to LTILRISELSMN [MRPL49 C-terminal 12 aa], for which the protein stability index stood at 0.7053 ± 0.0034 under setting [1] and 0.354 ± 0.0057 (genetic background: wild type).

As for LTLNWGVEIVKK [RDI1 C-terminal 12 aa], the protein stability index by setting is: under setting [1], 0.73 ± 0.03; (genetic background: wild type) 0.725 ± 0.017.

For the sequence “LTMLPPMAPLLS [YMR158W-B C-terminal 12 aa]”, the protein stability index by setting is: under setting [1], 0.684 ± 0.021; (genetic background: wild type) 0.653 ± 0.018.

As to LTPADLQFLFNN [RAD16 C-terminal 12 aa], the protein stability index was found to be 0.72 ± 0.013 under setting [1] and 0.708 ± 0.017 (genetic background: wild type).

For LTQVEKPRGIFD [DDC1 C-terminal 12 aa], the protein stability index turned out to be 0.71 ± 0.023 under setting [1] and 0.674 ± 0.013 (genetic background: wild type).
